Assay results as given in article PMC7615141, “ADAMTS-7 modulates atherosclerotic plaque formation by degradation of TIMP-1” (Circulation research, 2023).

B1: ADAMTS-7-FLAG (enzyme, human, UniProt Q9UKP4 28-1686, looked up)
chain: APGPAPGRATEGRAALDIVHPVRVDAGGSFLSYELWPRALRKRDVSVRRDAPAFYELQYRGRELRFNLTANQHLLAPGFVSETRRRGGLGRAHIRAHTPACHLLGEVQDPELEGGLAAISACDGLKGVFQLSNEDYFIEPLDSAPARPGHAQPHVVYKRQAPERLAQRGDSSAPSTCGVQVYPELESRRERWEQRQQWRRPRLRRLHQRSVSKEKWVETLVVADAKMVEYHGQPQVESYVLTIMNMVAGLFHDPSIGNPIHITIVRLVLLEDEEEDLKITHHADNTLKSFCKWQKSINMKGDAHPLHHDTAILLTRKDLCAAMNRPCETLGLSHVAGMCQPHRSCSINEDTGLPLAFTVAHELGHSFGIQHDGSGNDCEPVGKRPFIMSPQLLYDAAPLTWSRCSRQYITRFLDRGWGLCLDDPPAKDIIDFPSVPPGVLYDVSHQCRLQYGAYSAFCEDMDNVCHTLWCSVGTTCHSKLDAAVDGTRCGENKWCLSGECVPVGFRPEAVDGGWSGWSAWSICSRSCGMGVQSAERQCTQPTPKYKGRYCVGERKRFRLCNLQACPAGRPSFRHVQCSHFDAMLYKGQLHTWVPVVNDVNPCELHCRPANEYFAEKLRDAVVDGTPCYQVRASRDLCINGICKNVGCDFEIDSGAMEDRCGVCHGNGSTCHTVSGTFEEAEGLGYVDVGLIPAGAREIRIQEVAEAANFLALRSEDPEKYFLNGGWTIQWNGDYQVAGTTFTYARRGNWENLTSPGPTKEPVWIQLLFQESNPGVHYEYTIHREAGGHDEVPPPVFSWHYGPWTKCTVTCGRGVQRQNVYCLERQAGPVDEEHCDPLGRPDDQQRKCSEQPCPARWWAGEWQLCSSSCGPGGLSRRAVLCIRSVGLDEQSALEPPACEHLPRPPTETPCNRHVPCPATWAVGNWSQCSVTCGEGTQRRNVLCTNDTGVPCDEAQQPASEVTCSLPLCRWPLGTLGPEGSGSGSSSHELFNEADFIPHHLAPRPSPASSPKPGTMGNAIEEEAPELDLPGPVFVDDFYYDYNFINFHEDLSYGPSEEPDLDLAGTGDRTPPPHSHPAAPSTGSPVPATEPPAAKEEGVLGPWSPSPWPSQAGRSPPPPSEQTPGNPLINFLPEEDTPIGAPDLGLPSLSWPRVSTDGLQTPATPESQNDFPVGKDSQSQLPPPWRDRTNEVFKDDEEPKGRGAPHLPPRPSSTLPPLSPVGSTHSSPSPDVAELWTGGTVAWEPALEGGLGPVDSELWPTVGVASLLPPPIAPLPEMKVRDSSLEPGTPSFPTPGPGSWDLQTVAVWGTFLPTTLTGLGHMPEPALNPGPKGQPESLSPEVPLSSRLLSTPAWDSPANSHRVPETQPLAPSLAEAGPPADPLVVRNAGWQAGNWSECSTTCGLGAVWRPVRCSSGRDEDCAPAGRPQPARRCHLRPCATWHSGNWSKCSRSCGGGSSVRDVQCVDTRDLRPLRPFHCQPGPAKPPAHRPCGAQPCLSWYTSSWRECSEACGGGEQQRLVTCPEPGLCEEALRPNTTRPCNTHPCTQWVVGPWGQCSGPCGGGVQRRLVKCVNTQTGLPEEDSDQCGHEAWPESSRPCGTEDCEPVEPPRCERDRLSFGFCETLRLLGRCQLPTIRTQCCRSCSPPSHGAPSRGHQRVARR
notes: ADAMTS-7, human; also called ADAMTS-7-FLAG-cryptate; TS7-FLAG-Crypt; source: HEK293, transfected, in lysate

Legend:
[1] = target: T1, TIMP-1-HA (tissue inhibitor of metalloproteinases 1 with HA tag) (human, UniProt P01033 24-207); assay: AlphaScreen or HTRF; the pair ADAMTS-7-FLAG and TIMP-1-HA in the competition experiment (lysates; 0 ng untagged TIMP-1 as reference); 665/620 nm ratio; seven independent experiments; conditions: partners not purified
T1 construct: source: HEK293, transfected, in lysate; also in the supernatant

[2] = target: T1, TIMP-1-HA (tissue inhibitor of …); assay: AlphaScreen or HTRF; time-resolved FRET; lysates of HEK293 cells overexpressing ADAMTS-7-FLAG and TIMP-1-HA incubated with anti-FLAG-cryptate and anti-HA-d2 antibodies; excitation 337 nm; 665/620 nm ratio as readout; conditions: partners not purified
ADAMTS-7-FLAG = target: B1; assay: AlphaScreen or HTRF; competition in the time-resolved FRET assay: untagged recombinant TIMP-1 (400 or 800 ng) added to ADAMTS-7-FLAG and TIMP-1-HA in lysates; 665/620 nm ratio; seven independent experiments; conditions: one partner purified

T1 sequence (P01033 24-207): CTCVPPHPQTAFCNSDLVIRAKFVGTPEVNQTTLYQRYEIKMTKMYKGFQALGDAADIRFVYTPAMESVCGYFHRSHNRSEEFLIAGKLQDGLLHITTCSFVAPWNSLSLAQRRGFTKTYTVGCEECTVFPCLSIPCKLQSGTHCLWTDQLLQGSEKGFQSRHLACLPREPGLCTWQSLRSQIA

Row | Binder | FRET ratio (665/620) with 0 ng untagged TIMP-1 [1] | FRET ratio (665/620) [2] | FRET ratio (665/620) of ADAMTS-7-FLAG with TIMP-1-HA in the presence of 400 ng untagged TIMP-1 (ADAMTS-7-FLAG) | FRET ratio (665/620) of ADAMTS-7-FLAG with TIMP-1-HA in the presence of 800 ng untagged TIMP-1 (ADAMTS-7-FLAG)
1 | B1 | 4950 665/620 ratio | 5480 665/620 ratio | – | –
2 | untagged, recombinant TIMP-1 (natural protein, The supplier may be named in the Supplemental Material; also called untagged TIMP-1; source: recombinant, untagged) not shown | – | – | 4420 665/620 ratio | 3570 665/620 ratio
